Test results taken from patent publication US20160185837A1 (AstraZeneca / MedImmune, published 2016).
Numbering of substitutions follows the chain as printed.

T1: rat GIP receptor (rat, UniProt P43219 19-455)
T1 sequence (looked up): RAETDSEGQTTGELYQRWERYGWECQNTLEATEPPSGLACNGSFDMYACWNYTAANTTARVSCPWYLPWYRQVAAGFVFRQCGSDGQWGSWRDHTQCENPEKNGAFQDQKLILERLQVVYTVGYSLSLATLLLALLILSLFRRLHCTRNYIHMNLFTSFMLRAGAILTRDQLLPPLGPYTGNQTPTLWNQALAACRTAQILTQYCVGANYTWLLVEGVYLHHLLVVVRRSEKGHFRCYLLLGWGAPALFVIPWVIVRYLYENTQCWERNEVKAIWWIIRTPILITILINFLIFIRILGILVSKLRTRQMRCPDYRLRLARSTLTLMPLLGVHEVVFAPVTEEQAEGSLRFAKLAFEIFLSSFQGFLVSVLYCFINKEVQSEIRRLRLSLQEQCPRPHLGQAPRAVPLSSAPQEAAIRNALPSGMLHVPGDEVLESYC

T2: mouse GLP-1 receptor (mouse, UniProt O35659 22-463)
T2 sequence (looked up): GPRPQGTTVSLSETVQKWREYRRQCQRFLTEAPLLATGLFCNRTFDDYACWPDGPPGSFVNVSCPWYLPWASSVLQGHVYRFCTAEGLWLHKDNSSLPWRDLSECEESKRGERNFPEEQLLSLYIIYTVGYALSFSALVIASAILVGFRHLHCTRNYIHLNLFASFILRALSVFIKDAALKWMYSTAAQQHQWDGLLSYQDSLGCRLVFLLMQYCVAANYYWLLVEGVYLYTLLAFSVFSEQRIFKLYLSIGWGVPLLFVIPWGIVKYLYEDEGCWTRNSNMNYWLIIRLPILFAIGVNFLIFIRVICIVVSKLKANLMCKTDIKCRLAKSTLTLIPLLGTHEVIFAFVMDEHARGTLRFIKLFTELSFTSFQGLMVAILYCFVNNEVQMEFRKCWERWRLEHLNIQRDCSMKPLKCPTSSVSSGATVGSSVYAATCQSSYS

T3: mouse GIP receptor (mouse, UniProt Q0P543 19-460)
T3 sequence (looked up): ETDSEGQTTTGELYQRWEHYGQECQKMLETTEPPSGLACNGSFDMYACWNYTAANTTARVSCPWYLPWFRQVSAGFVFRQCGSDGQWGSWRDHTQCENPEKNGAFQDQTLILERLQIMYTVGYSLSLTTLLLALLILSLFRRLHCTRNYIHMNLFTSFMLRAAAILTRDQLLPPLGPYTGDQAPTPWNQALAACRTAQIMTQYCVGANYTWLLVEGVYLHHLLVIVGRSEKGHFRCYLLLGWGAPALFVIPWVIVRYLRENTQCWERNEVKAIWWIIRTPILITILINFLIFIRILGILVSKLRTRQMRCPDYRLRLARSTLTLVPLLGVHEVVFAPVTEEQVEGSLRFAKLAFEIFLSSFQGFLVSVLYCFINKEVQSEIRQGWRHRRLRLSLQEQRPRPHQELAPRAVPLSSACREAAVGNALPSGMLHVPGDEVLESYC

T4: rat GLP-1 receptor (rat, UniProt P32301 22-463)
T4 sequence (looked up): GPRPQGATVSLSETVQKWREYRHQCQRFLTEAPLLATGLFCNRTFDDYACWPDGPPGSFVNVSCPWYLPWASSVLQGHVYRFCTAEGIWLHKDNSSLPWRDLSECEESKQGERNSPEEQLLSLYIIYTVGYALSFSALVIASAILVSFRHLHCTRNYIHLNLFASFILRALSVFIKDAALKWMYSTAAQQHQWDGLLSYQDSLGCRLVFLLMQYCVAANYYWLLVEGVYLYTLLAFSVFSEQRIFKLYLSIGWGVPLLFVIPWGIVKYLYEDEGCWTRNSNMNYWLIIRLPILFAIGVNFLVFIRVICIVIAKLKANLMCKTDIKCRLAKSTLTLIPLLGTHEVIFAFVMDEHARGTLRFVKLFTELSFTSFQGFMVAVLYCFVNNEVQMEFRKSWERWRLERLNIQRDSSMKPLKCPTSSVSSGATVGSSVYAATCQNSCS

T5: human GIP receptor (human, UniProt P48546 22-466)
T5 sequence (looked up): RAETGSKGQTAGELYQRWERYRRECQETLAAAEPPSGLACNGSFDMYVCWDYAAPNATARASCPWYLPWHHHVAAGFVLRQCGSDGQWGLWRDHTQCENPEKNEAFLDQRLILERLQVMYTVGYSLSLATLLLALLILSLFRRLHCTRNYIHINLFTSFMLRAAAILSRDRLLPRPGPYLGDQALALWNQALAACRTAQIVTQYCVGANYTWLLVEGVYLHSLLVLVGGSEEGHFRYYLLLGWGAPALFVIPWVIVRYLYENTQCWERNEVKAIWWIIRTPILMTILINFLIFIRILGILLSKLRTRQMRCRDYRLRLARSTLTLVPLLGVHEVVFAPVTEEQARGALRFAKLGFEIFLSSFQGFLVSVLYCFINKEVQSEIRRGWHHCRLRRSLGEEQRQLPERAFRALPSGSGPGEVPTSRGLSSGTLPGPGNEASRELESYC

B1: IP243 (Fc fusion)
chain: YSEGTFTSDYSKLLEEEAQRLFIEWLVKGPAAAGGSGSTASSGSGSATGGGGAATHTCPPCPAPEF
B2: IP212 (Fc fusion)
chain: B1 chain with Q19V, L21E, E24A
B3: IP258 (Fc fusion)
chain: YSEGTFTSDYSKLLDEEAVRLFIEWLVKGPGGGGGSGGGGSGGGGSGGGGSATHTCPPCPAPEF
B4: IP259 (Fc fusion)
chain: B3 chain with D15E, E16K
B5: IP260 (Fc fusion)
chain: B3 chain with D15E, R20Q
B6: IP261 (Fc fusion)
chain: B3 chain with D15E, I23V
B7: IP262 (Fc fusion)
chain: B3 chain with D15E, V27L
B8: IP263 (Fc fusion)
chain: B3 chain with D15E, G29Q
B9: IP131 (Fc fusion)
chain: YSEGTFTSDYSKLLEEEAVRLFIEWLLAGGGGGGSGGGGSGGGGSGGGGSATHTCPPCPAPEF
B10: IP264 (Fc fusion)
chain: B3 chain with D15E, P30K
B11: IP266 (Fc fusion)
chain: B9 chain with G30A, G31P, G32P
B12: IP200 (Fc fusion)
chain: B1 chain with E3Q, L13I, Q19V
B13: IP201 (Fc fusion)
chain: YSEGTFTSDYSKLLEEEAVRLFIEWLLAGPSSGAPPPSAAAGGSGSTASSGSGSATGGGGAATHTCPPCPAPEF
B14: IP253 (Fc fusion)
chain: YSEGTFTSDYSKLLDEEAVRLFIEWLLAGAPPGGSGSTASSGSGSATGGGGAATHTCPPCPAPEF
B15: IP267 (Fc fusion)
chain: YSEGTFTSDYSKLLEEEHVRLFIEWLVKGPGGGGGSGGGGSGGGGSGGGGSATHTCPPC
B16: IP268 (Fc fusion)
chain: B15 chain with H18A

target: T1, rat GIP receptor; experiment: cell-based or functional assay

Binder | cAMP EC50 [nM] | cAMP EC50, Batch 2 [nM]
B1 | 0.091 | 
B2 | 0.12 | 
B3 | 1.5 | 
B4 | 0.033 | 
B5 | 0.45 | 
B6 | 0.27 | 
B7 | 0.019 | 
B8 | 1.1 | 
B9 | 0.23 | 
B10 | 0.094 | 
B11 | 0.038 | 
B12 |  | 0.25
B13 | 0.23 | 0.019
B14 | 0.024 | 
B15 | 0.81 | 
B16 | 0.15 | 

target: T2, mouse GLP-1 receptor; experiment: cell-based or functional assay

Binder | cAMP EC50 [nM] | cAMP EC50, Batch 2 [nM]
B1 | 0.36 | 
B2 | 0.35 | 
B3 | 2.3 | 
B4 | 0.31 | 
B5 | 5.3 | 
B6 | 0.34 | 
B7 | 0.53 | 
B8 | 0.96 | 
B9 | 1 | 
B10 | 0.3 | 
B11 | 0.76 | 
B12 |  | 0.34
B13 | 0.65 | 0.41
B14 | 3.8 | 
B15 | 10 | 
B16 | 0.28 | 

target: T3, mouse GIP receptor; experiment: cell-based or functional assay

Binder | cAMP EC50 [nM] | cAMP EC50, Batch 2 [nM]
B1 | 32 | 
B2 | 190 | 
B3 | 870 | 
B4 | 12 | 
B5 | 2400 | 
B6 | 230 | 
B7 | 3 | 
B8 | 7000 | 
B9 | 5.1 | 
B10 | 97 | 
B11 | 0.3 | 
B12 |  | 160
B13 | 4.3 | 1.6
B14 | 0.61 | 
B15 | > 278 | 
B16 | 210 | 

target: human glucagon receptor (human, UniProt P47871 26-477); experiment: cell-based or functional assay

Binder | cAMP EC50 [nM] | cAMP EC50, Batch 2 [nM] | cAMP EC50, Batch 3 [nM]
B1 | > 2100 | 1400 | 1400
B2 | > 4000 |  | 
B3 | > 19000 |  | 
B4 | > 480 |  | 
B5 | > 16000 |  | 
B6 | > 2400 |  | 
B7 | 63 |  | 
B8 | > 18000 |  | 
B9 | 23 |  | 
B10 | > 9800 |  | 
B11 | 16 |  | 
B12 | 0.11 | 0.083 | 
B13 | 3.9 | 11 | 
B14 | 78 |  | 
B15 | 5800 |  | 
B16 | 2900 |  | 

target: T4, rat GLP-1 receptor; experiment: cell-based or functional assay

Binder | cAMP EC50 [nM] | cAMP EC50, Batch 2 [nM]
B1 | 0.024 | 
B2 | 0.034 | 
B3 | 0.12 | 
B4 | 0.029 | 
B5 | 0.25 | 
B6 | 0.028 | 
B7 | 0.036 | 
B8 | 0.042 | 
B9 | 0.1 | 
B10 | 0.026 | 
B11 | 0.3 | 
B12 |  | 0.028
B13 | 0.098 | 0.028
B14 | 0.21 | 
B15 | 0.3 | 
B16 | 0.026 | 

target: T5, human GIP receptor; experiment: cell-based or functional assay

Binder | cAMP EC50 [nM] | cAMP EC50, Batch 2 [nM] | cAMP EC50, Batch 3 [nM] | cAMP EC50, hGIPr (C3) line [nM]
B1 | 0.01 | 0.0069 | 0.0072 | 
B2 | 0.0081 |  |  | 
B3 | 0.039 |  |  | 
B4 | 0.027 |  |  | 
B5 | 0.033 |  |  | 
B6 | 0.03 |  |  | 
B7 | 0.01 |  |  | 
B8 | 0.027 |  |  | 
B9 | 0.0091 |  |  | 
B10 | 0.017 |  |  | 
B11 | 0.012 |  |  | 
B12 | 0.018 | 0.012 |  | 
B13 | 0.011 | 0.034 |  | 
B14 | 0.0093 |  |  | 
B15 | 0.12 |  |  | 
B16 | 0.01 |  |  | 3.8

target: human GLP-1 receptor (human, UniProt P43220 24-463); experiment: cell-based or functional assay

Binder | cAMP EC50 [nM] | cAMP EC50, Batch 2 [nM] | cAMP EC50, Batch 3 [nM]
B1 | 0.25 | 0.21 | 0.17
B2 | 0.087 |  | 
B3 | 0.42 |  | 
B4 | 0.1 |  | 
B5 | 0.91 |  | 
B6 | 0.14 |  | 
B7 | 0.21 |  | 
B8 | 0.14 |  | 
B9 | 0.1 |  | 
B10 | 0.1 |  | 
B11 | 0.15 |  | 
B12 | 0.12 | 0.077 | 
B13 | 0.2 | 0.56 | 
B14 | 0.26 |  | 
B15 | 1.5 |  | 
B16 | 0.12 |  | 
